# Assay results reported in patent US20240116985A1, “STAPLED PEPTIDES AND METHODS THEREOF” (priority 2020, published 2024).
# Starred links: 1 amine or outer side, 2 acyl side, 3 side chain; linkers in the order of their positions; H or OH if unused. Positions of bridges follow the written chain, without caps; N, C: chain ends. Non-standard residues stand in square brackets, D forms with d. Primed or numbered codes have the meaning given here. *: point of attachment. PyrS2″ = (S)-3-amino-1-((pent-4-en-1-yloxy)carbonyl)pyrrolidine-3-carboxylic acid (stapling residue), C=CCCCOC(=O)N1CC[C@@](N[*:1])(C(=O)[*:2])C1; B5(30) = 2-amino-2-(pent-4-en-1-yl)hept-6-enoic acid (2,2-bis(4-pentenyl)glycine, stitching residue), C=CCCCC(CCCC=C)(N[*:1])C(=O)[*:2]; B5(4) = 2,2-bis(4-pentenyl)glycine = 2-amino-2-(pent-4-en-1-yl)hept-6-enoic acid (stitching residue), C=CCCCC(CCCC=C)(N[*:1])C(=O)[*:2]; B5(5) = 2,2-bis(4-pentenyl)glycine, 2-amino-2-(pent-4-en-1-yl)hept-6-enoic acid (stitching residue), C=CCCCC(CCCC=C)(N[*:1])C(=O)[*:2]; (3C)TriAzdLys = (R)-2-amino-6-(4-propyl-1H-1,2,3-triazol-1-yl)hexanoic acid, CCCc1cn(CCCC[C@@H](N[*:1])C(=O)[*:2])nn1; B5(3) = 2,2-bis(4-pentenyl)glycine (stitching residue), C=CCCCC(CCCC=C)(N[*:1])C(=O)[*:2]; Ala(1H-tetrazol-5-yl) = N[C@@H](Cc1nnn[nH]1)C(=O)O; Phe(3-COOH) = N[C@@H](Cc1cccc(C(=O)O)c1)C(=O)O; Phe(2-CF3) = N[C@@H](Cc1ccccc1C(F)(F)F)C(=O)O; Phe(4-NH2) = Nc1ccc(C[C@H](N)C(=O)O)cc1; Ala(2-furyl) = N[C@@H](Cc1ccco1)C(=O)O; Phe(2-Cl) = N[C@@H](Cc1ccccc1Cl)C(=O)O; Phe(3-Me) = Cc1cccc(C[C@H](N)C(=O)O)c1; Phe(4-Me) = Cc1ccc(C[C@H](N)C(=O)O)cc1; 1Nal = N[C@@H](Cc1cccc2ccccc12)C(=O)O; 2Nal = N[C@@H](Cc1ccc2ccccc2c1)C(=O)O; Phe(2-Me) = Cc1ccccc1C[C@H](N)C(=O)O; Bta = N[C@@H](Cc1csc2ccccc12)C(=O)O; Lys(iPr) = CC(C)NCCCC[C@H](N)C(=O)O; αAllylPro = C=CC[C@@]1(C(=O)O)CCCN1; hPhe = N[C@@H](CCc1ccccc1)C(=O)O; tBuAla = CC(C)(C)C[C@H](N)C(=O)O; 2Thi = N[C@@H](Cc1cccs1)C(=O)O; 3Thi = N[C@@H](Cc1ccsc1)C(=O)O; Cha = N[C@@H](CC1CCCCC1)C(=O)O; S8 = C=CCCCCCC[C@](C)(N)C(=O)O; Butoxycarbonyl = CCCCOC(=O)*; hSer = N[C@@H](CCO)C(=O)O
# B1: I-1272 (peptide)
# peptide: Ac-[αAllylPro]D[tBuAla][B5(3)]DTAAFT[PyrS2″]F[1Nal]S-NH2
# modifications: staple 1-4; staple 4-11 (inferred); not fully specified; printed as Ac-PL3-Asp-Npg-B5-Asp-Thr-Ala-Ala-Phe-Thr-PyrS2-Phe-1NapA-Ser-NH2
# B2: I-2444 (peptide)
# peptide: Ac-[αAllylPro]D[tBuAla][B5(30)]D[Phe(3-COOH)]AAFL[PyrS2″][Phe(2-CF3)][Bta]S[(3C)TriAzdLys]-NH2
# modifications: staple 1-4, 4-11; not fully specified; printed as Ac-PL3-Asp-Npg-B5-Asp-3COOHF-Ala-Ala-Phe-Leu-PyrS2-2F3MeF-BztA-Ser-[3C]TriAzdLys-NH2
# B3: I-2455 (peptide)
# peptide: Ac-[αAllylPro]N[Cha][B5(30)]DT[Lys(iPr)]AFL[PyrS2″]F[Bta]K-NH2
# modifications: staple 1-4, 4-11; not fully specified; printed as Ac-PL3-Asn-Cha-B5-Asp-Thr-iPrLys-Ala-Phe-Leu-PyrS2-Phe-BztA-Lys-NH2; also: staple -CH=CH- reduced to -CH2-CH2-
# B4: I-2454 (peptide)
# peptide: Ac-[αAllylPro]N[Cha][B5(30)]DT[hSer]AFL[PyrS2″]F[Bta]K-NH2
# modifications: staple 1-4, 4-11; not fully specified; printed as Ac-PL3-Asn-Cha-B5-Asp-Thr-Hse-Ala-Phe-Leu-PyrS2-Phe-BztA-Lys-NH2; also: staple -CH=CH- reduced to -CH2-CH2-
# B5: I-2446 (peptide)
# peptide: Ac-[αAllylPro]N[Cha][B5(5)]DQ[Lys(iPr)]AFL[PyrS2″][3Thi][Bta]Q-NH2
# modifications: staple 1-4, 4-11; not fully specified; printed as Ac-PL3-Asn-Cha-B5-Asp-Gln-iPrLys-Ala-Phe-Leu-PyrS2-3Thi-BztA-Gln-NH2
# B6: I-2447 (peptide)
# peptide: Ac-[αAllylPro]N[Cha][B5(30)]DT[hSer]AFL[PyrS2″]F[Bta]Q-NH2
# modifications: staple 1-4, 4-11; not fully specified; printed as Ac-PL3-Asn-Cha-B5-Asp-Thr-Hse-Ala-Phe-Leu-PyrS2-Phe-BztA-Gln-NH2
# B7: I-2451 (peptide)
# peptide: Ac-[αAllylPro]N[Cha][B5(30)]DQ[hSer]AFL[PyrS2″][3Thi][Bta]Q-NH2
# modifications: staple 1-4, 4-11; not fully specified; printed as Ac-PL3-Asn-Cha-B5-Asp-Gln-Hse-Ala-Phe-Leu-PyrS2-3Thi-BztA-Gln-NH2; also: staple -CH=CH- reduced to -CH2-CH2-
# B8: I-2452 (peptide)
# peptide: Ac-[αAllylPro]N[Cha][B5(30)]DQ[Lys(iPr)]AFL[PyrS2″][3Thi][Bta]Q-NH2
# modifications: staple 1-4, 4-11; not fully specified; printed as Ac-PL3-Asn-Cha-B5-Asp-Gln-iPrLys-Ala-Phe-Leu-PyrS2-3Thi-BztA-Gln-NH2; also: staple -CH=CH- reduced to -CH2-CH2-
# Target: full-length beta-Catenin (Uniprot ID P35222) (Homo sapiens (Human)) (UniProt P35222)
# Test: fluorescence polarization competition; full-length beta-catenin + 5FAM-TCF4(10-53) probe
# Target sequence in this assay (P35222 whole entry): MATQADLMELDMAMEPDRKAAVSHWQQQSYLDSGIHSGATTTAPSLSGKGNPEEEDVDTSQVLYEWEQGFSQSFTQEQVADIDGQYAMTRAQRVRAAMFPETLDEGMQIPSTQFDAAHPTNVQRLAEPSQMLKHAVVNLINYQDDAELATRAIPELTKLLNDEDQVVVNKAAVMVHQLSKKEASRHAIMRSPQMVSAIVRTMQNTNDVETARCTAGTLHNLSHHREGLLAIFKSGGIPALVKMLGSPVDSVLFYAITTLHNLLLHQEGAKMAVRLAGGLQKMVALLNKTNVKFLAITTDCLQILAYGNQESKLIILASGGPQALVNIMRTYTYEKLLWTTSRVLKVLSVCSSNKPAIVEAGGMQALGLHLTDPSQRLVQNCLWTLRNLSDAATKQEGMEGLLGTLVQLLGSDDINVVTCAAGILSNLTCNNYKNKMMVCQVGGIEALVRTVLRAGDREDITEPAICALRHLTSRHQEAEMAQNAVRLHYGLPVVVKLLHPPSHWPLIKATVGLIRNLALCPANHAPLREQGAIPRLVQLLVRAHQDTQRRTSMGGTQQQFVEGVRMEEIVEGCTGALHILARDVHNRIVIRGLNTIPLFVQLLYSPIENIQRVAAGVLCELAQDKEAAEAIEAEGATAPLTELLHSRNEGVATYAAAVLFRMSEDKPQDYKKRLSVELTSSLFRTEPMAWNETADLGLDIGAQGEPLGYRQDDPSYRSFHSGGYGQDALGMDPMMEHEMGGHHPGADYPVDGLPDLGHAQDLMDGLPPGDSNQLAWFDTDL
row,Binder,EC50
1,B1,331 nM

# Target: full-length beta-Catenin (Uniprot ID P35222) (Homo sapiens (Human)) (UniProt P35222)
# Test: fluorescence polarization competition against 5FAM-TCF4(10-53), full-length beta-catenin
# Target sequence in this assay (P35222 whole entry): as above
row,Binder,IC50
1,"Butoxycarbonyl-[αAllylPro]D[tBuAla][B5(4)]D[Phe(3-COOH)]AAFL[PyrS2″][Phe(2-Cl)][Bta]A-NH2 (staple 1-4, 4-11) [I-2304]",511 nM

# Target: full-length beta-Catenin (Uniprot ID P35222) (Homo sapiens (Human)) (UniProt P35222)
# Test: fluorescence polarization competition against 5FAM-TCF4(10-53) on full-length beta-catenin
# Target sequence in this assay (P35222 whole entry): as above
row,Binder,IC50
1,B1,331 nM

# Target: full-length beta-Catenin (Uniprot ID P35222) (Homo sapiens (Human)) (UniProt P35222)
# Test: fluorescence polarization competition; full-length beta-catenin, competitor 5FAM-TCF4(10-53) probe
# Target sequence in this assay (P35222 whole entry): as above
row,Binder,IC50
1,"Ac-[αAllylPro]DA[B5(4)]DEAA[2Thi]N[S8]F[Bta]Q-NH2 (staple 1-4, 4-11) [I-447]",74 nM
2,"Ac-[αAllylPro]DA[B5(4)]D[Ala(1H-tetrazol-5-yl)]AAFN[S8]F[Bta]Q-NH2 (staple 1-4, 4-11) [I-444]",80 nM
3,"Ac-[αAllylPro]DA[B5(4)][Ala(1H-tetrazol-5-yl)]DAAFN[S8]F[Bta]Q-NH2 (staple 1-4, 4-11) [I-445]",4960 nM
4,"Ac-[αAllylPro]DA[B5(4)]DEAAFN[S8][hPhe][Bta]Q-NH2 (staple 1-4, 4-11; also: staple isomer composition, later-eluting HPLC peak) [I-443]",2130 nM
5,"Ac-[αAllylPro]DA[B5(4)]DEAA[Phe(2-Me)]N[S8]F[Bta]Q-NH2 (staple 1-4, 4-11) [I-456]",2170 nM
6,"Ac-[αAllylPro]DA[B5(4)]DEAA[Phe(4-NH2)]N[S8]F[Bta]Q-NH2 (staple 1-4, 4-11) [I-461]",125 nM
7,"Ac-[αAllylPro]DA[B5(4)]DEAA[2Thi]N[S8]F[Bta]Q-NH2 (staple 1-4, 4-11; also: staple isomer composition, earlier-eluting HPLC peak) [I-446]",130 nM
8,"Ac-[αAllylPro]DA[B5(4)]DEAA[Phe(2-Me)]N[S8]F[Bta]Q-NH2 (staple 1-4, 4-11) [I-457]",1440 nM
9,"Ac-[αAllylPro]DA[B5(4)]DEAA[Phe(3-Me)]N[S8]F[Bta]Q-NH2 (staple 1-4, 4-11) [I-458]",102 nM
10,"Ac-[αAllylPro]DA[B5(4)]DEAA[3Thi]N[S8]F[Bta]Q-NH2 (staple 1-4, 4-11) [I-449]",53 nM
11,"Ac-[αAllylPro]DA[B5(4)]DEAA[Phe(4-Me)]N[S8]F[Bta]Q-NH2 (staple 1-4, 4-11) [I-459]",183 nM
12,"Ac-[αAllylPro]DA[B5(4)]DEAAFN[S8][hPhe][Bta]Q-NH2 (staple 1-4, 4-11; also: staple isomer composition, earlier-eluting HPLC peak) [I-442]",4480 nM
13,"Ac-[αAllylPro]DA[B5(4)]DEAA[3Thi]N[S8]F[Bta]Q-NH2 (staple 1-4, 4-11) [I-448]",92 nM
14,"Ac-[αAllylPro]DA[B5(4)]DEAA[Ala(2-furyl)]N[S8]F[Bta]Q-NH2 (staple 1-4, 4-11) [I-460]",196 nM

# Target: full-length beta-Catenin (Uniprot ID P35222) (Homo sapiens (Human)) (UniProt P35222)
# Test: fluorescence polarization competition: full-length beta-catenin + 5FAM-TCF4(10-53) probe, peptide titrated
# Target sequence in this assay (P35222 whole entry): as above
row,Binder,EC50
1,"Ac-[αAllylPro]DA[B5(4)]DEAA[2Thi]N[S8]F[Bta]Q-NH2 (staple 1-4, 4-11) [I-447]",74 nM
2,"Ac-[αAllylPro]DA[B5(4)]D[Ala(1H-tetrazol-5-yl)]AAFN[S8]F[Bta]Q-NH2 (staple 1-4, 4-11) [I-444]",80 nM
3,"Ac-[αAllylPro]DA[B5(4)][Ala(1H-tetrazol-5-yl)]DAAFN[S8]F[Bta]Q-NH2 (staple 1-4, 4-11) [I-445]",4960 nM
4,"Ac-[αAllylPro]DA[B5(4)]DEAAFN[S8][hPhe][Bta]Q-NH2 (staple 1-4, 4-11; also: staple isomer composition, later-eluting HPLC peak) [I-443]",2130 nM
5,"Ac-[αAllylPro]DA[B5(4)]DEAA[Phe(2-Me)]N[S8]F[Bta]Q-NH2 (staple 1-4, 4-11) [I-456]",2170 nM
6,"Ac-[αAllylPro]DA[B5(4)]DEAA[Phe(4-NH2)]N[S8]F[Bta]Q-NH2 (staple 1-4, 4-11) [I-461]",125 nM
7,"Ac-[αAllylPro]DA[B5(4)]DEAA[2Thi]N[S8]F[Bta]Q-NH2 (staple 1-4, 4-11; also: staple isomer composition, earlier-eluting HPLC peak) [I-446]",130 nM
8,"Ac-[αAllylPro]DA[B5(4)]DEAA[Phe(2-Me)]N[S8]F[Bta]Q-NH2 (staple 1-4, 4-11) [I-457]",1440 nM
9,"Ac-[αAllylPro]DA[B5(4)]DEAA[Phe(3-Me)]N[S8]F[Bta]Q-NH2 (staple 1-4, 4-11) [I-458]",102 nM
10,"Ac-[αAllylPro]DA[B5(4)]DEAA[3Thi]N[S8]F[Bta]Q-NH2 (staple 1-4, 4-11) [I-449]",53 nM
11,"Ac-[αAllylPro]DA[B5(4)]DEAA[Phe(4-Me)]N[S8]F[Bta]Q-NH2 (staple 1-4, 4-11) [I-459]",183 nM
12,"Ac-[αAllylPro]DA[B5(4)]DEAAFN[S8][hPhe][Bta]Q-NH2 (staple 1-4, 4-11; also: staple isomer composition, earlier-eluting HPLC peak) [I-442]",4480 nM
13,"Ac-[αAllylPro]DA[B5(4)]DEAA[3Thi]N[S8]F[Bta]Q-NH2 (staple 1-4, 4-11) [I-448]",92 nM
14,"Ac-[αAllylPro]DA[B5(4)]DEAA[Ala(2-furyl)]N[S8]F[Bta]Q-NH2 (staple 1-4, 4-11) [I-460]",196 nM

# Target: full-length beta-Catenin (Uniprot ID P35222) (Homo sapiens (Human)) (UniProt P35222)
# Test: fluorescence polarization competition; 10 nM full-length beta-catenin + 10 nM 5FAM-TCF4(10-53) probe, peptide titrated 10 uM to 5 nM
# Target sequence in this assay (P35222 2-781 limits assumed): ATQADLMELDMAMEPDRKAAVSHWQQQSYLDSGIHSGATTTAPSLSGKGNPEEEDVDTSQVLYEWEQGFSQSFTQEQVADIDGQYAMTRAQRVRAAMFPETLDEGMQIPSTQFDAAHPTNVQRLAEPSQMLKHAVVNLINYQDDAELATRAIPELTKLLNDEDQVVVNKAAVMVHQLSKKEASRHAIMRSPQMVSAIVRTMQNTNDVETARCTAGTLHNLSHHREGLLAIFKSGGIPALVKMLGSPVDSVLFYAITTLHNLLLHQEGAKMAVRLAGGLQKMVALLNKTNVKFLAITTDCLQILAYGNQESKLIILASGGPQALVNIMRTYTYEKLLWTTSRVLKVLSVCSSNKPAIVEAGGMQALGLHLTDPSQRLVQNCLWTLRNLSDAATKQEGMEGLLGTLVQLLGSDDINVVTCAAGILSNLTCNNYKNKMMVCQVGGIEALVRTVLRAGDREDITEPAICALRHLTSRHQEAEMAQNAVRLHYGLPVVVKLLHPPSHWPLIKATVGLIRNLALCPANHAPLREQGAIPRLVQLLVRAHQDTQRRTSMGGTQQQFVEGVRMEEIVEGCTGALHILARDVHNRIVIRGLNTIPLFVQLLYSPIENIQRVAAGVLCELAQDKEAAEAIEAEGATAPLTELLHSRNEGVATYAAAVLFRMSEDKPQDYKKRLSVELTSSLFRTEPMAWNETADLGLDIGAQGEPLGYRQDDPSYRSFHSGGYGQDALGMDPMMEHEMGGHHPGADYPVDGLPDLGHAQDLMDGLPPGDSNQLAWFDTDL
row,Binder,IC50
1,B2,121 nM
2,B3,10000 nM
3,B4,10000 nM
4,"Ac-[αAllylPro][hSer][tBuAla][B5(5)]DQAAFL[PyrS2″]F[Bta]Q-NH2 (staple 1-4, 4-11) [I-2443]",6670 nM
5,"Ac-[αAllylPro]N[Cha][B5(4)]DT[Lys(iPr)]AFL[PyrS2″]F[Bta]K-NH2 (staple 1-4, 4-11) [I-2450]",63 nM
6,"Ac-[αAllylPro]N[Cha][B5(30)]DT[hSer]AFL[PyrS2″]F[Bta]K-NH2 (staple 1-4, 4-11) [I-2449]",10000 nM
7,"Ac-[αAllylPro]D[tBuAla][B5(4)]D[Phe(3-COOH)]QAFL[PyrS2″][Phe(2-CF3)][2Nal]A-NH2 (staple 1-4, 4-11) [I-2461]",75 nM
8,"Ac-[αAllylPro]N[tBuAla][B5(5)]DHAAFL[PyrS2″]F[Bta]Q-NH2 (staple 1-4, 4-11) [I-2442]",282 nM
9,B5,93 nM
10,B6,3250 nM
11,B7,4860 nM
12,B8,7200 nM
13,"Ac-[αAllylPro]D[tBuAla][B5(4)]D[Phe(3-COOH)]QAFL[PyrS2″][Phe(2-CF3)][SbMeBztA]A-NH2 (staple 1-4, 4-11) [I-2457]",52 nM
14,"Ac-[αAllylPro]D[tBuAla][B5(4)]D[Phe(3-COOH)]QAFL[PyrS2″][Phe(2-CF3)][RbMeBztA]A-NH2 (staple 1-4, 4-11) [I-2459]",56 nM
